assay: yeast display, Sf9 membrane polyspecificity reagent, FACS + sequencing; frameworks hold sequencing errors
Summary of the method: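 Polyreactivity labels are assigned by the sorting gate from which each nanobody was recovered. The gates were low and high (top ~1%), set on anti-HA fluorescence for expression and streptavidin fluorescence for reagent binding. Before sorting, galactose-induced (36–48 hours) yeast display cells were stained for 1 hour at 4 °C with 10% biotinylated, detergent-solubilized Sf9 membrane reagent.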

**Q.** For “QVQLVESGGGLVQAGGSLRLSCAASGFTFAKYAMGWYRQAPGKERELVAAITNSGCRTYYEDSVKGRFTISRDNAKNTVYLQMNSPKPEDTAVYYCATEQLGGSIYDYWGQGTQVTVSS”, which “polyreactivity (PSR sort gate)” value is on record?
**A.** The value was “high polyreactivity”.

**Q.** For “QVQLVESGGGLVQAGGSLRLSCAASGFTFALNAMGWYRQAPGKERELVAAISSRGGSTYYADSVKGRFTISRDNAKNTVYLQMNSLKPEDTAGYYCAKDYKADSRFSPYGYWGQGTQVTVSS”, which “polyreactivity (PSR sort gate)” value is on record?
**A.** Its value is “high polyreactivity”.

**Q.** Which “polyreactivity (PSR sort gate)” value does the source give for “QVQLVESGGGLVQAGGSLRLSCAASGFTFALYAMGWYRQAPGKERELVAAITSGGSTNYADSVKGRFTISRDNAKNTVYLLMNSLKPEDTAVYYCAAVPYYRYYSLKGRNNYNYWGQGTQVTVSS” here?
**A.** Its value is “high polyreactivity”.

**Q.** Which “polyreactivity (PSR sort gate)” value does the source give for “QVQLVESGGGLVQAGGSLRLSCAASGFTFANNAMGWYRQAPGKERELVAAITRGDSTYYAESVKGRFTISRDNAKNTVYLQMNSRKPEDTAVYYCAKEWYFPIYDYWGQGTQVTVSS” here?
**A.** The value was “low polyreactivity”.

**Q.** Which “polyreactivity (PSR sort gate)” value does the source give for “QVQLVESGGGLVQAGGSLRLSCAASGFTFAPNAMGWYRQAPGKEMELVAAISSASSTYYADSVKGRFTISRDNAKNTVYLQMNSLKPEDTAVYYCAARVFKKYRPSGRYYYWGQGSQVTVSS” here?
**A.** Its value is “high polyreactivity”.

**Q.** Which “polyreactivity (PSR sort gate)” value does the source give for “QVQLVESGGGLVQAGGSLRLSCAASGFTFARNTMGWYRQAPGKEREFVAVITNRGGSTYYADSVKGRFTISRDNAKNTVYLQMNSLKPEDTAVYYCAARKKHSGYGRGNYWGQGTQVTVSS” here?
**A.** The value was “high polyreactivity”.

**Q.** With “QVQLVESGGGLVQAGGSLRLSCAASGFTFARYVMGWYRQAPGKERELVAAISWRGTRTFYADSVKGRFTISRDNAKNTVYLQMNSLKPEDTAVYYCAADSRPPKYDYWGQGTQVTVSS” as the sequence, how does the “polyreactivity (PSR sort gate)” value read?
**A.** Its value is “high polyreactivity”.

**Q.** With “QVQLVESGGGLVQAGGSLRLSCAASGFTFASNAMGWYRQAPGKERELVAGISRTGTTTYYADSVKGRFTISRDNAKNTVYLQMNSLKPEDTAVYYCAKGSNSYLRYHYTYPYDYWGQGTQVTVSS” as the sequence, how does the “polyreactivity (PSR sort gate)” value read?
**A.** The value was “high polyreactivity”.

**Q.** For “QVQLVESGGGLVQAGGSLRLSCAASGFTFASNDMGWYRQAPGKERELVASITKGGGRTYYADSVKGRFTISRDNAKNTVYLQMNSLKPEDTAVFYCAARQLIKYDYWGQGTQVTVSS”, which “polyreactivity (PSR sort gate)” value is on record?
**A.** The value was “low polyreactivity”.

**Q.** For “QVQLVESGGGLVQAGGSLRLSCAASGFTFASNGRGGYRQAPGKERELVAVIDWSDDSTYYADSVKGRFTISRDNAKNTVYLQMNSLKPEDTAVYYCNADDWWGGYDYWGQGTQVTVSS”, which “polyreactivity (PSR sort gate)” value is on record?
**A.** The value was “low polyreactivity”.

**Q.** For “QVQLVESGGGLVQAGGSLRLSCAASGFTFATYDMGLYRQAPGKERELVAAISRSGGRTYYADSVKVLFTISRDYAKNTVYLQMNSLKPEDTAVYYCAKYVPGYPYDYWGQGTQVTVSS”, which “polyreactivity (PSR sort gate)” value is on record?
**A.** Its value is “high polyreactivity”.

**Q.** Which “polyreactivity (PSR sort gate)” value does the source give for “QVQLVESGGGLVQAGGSLRLSCAASGFTFAVNAMGWYRQAPGKERELVAAISWSGVSTYYADSVKRRFTISRDNAKNTVYLQMNSLKPEDTAVYYCARRRTKSYTRKYDYWGQGTQVTVSS” here?
**A.** Its value is “low polyreactivity”.

**Q.** For “QVQLVESGGGLVQAGGSLRLSCAASGFTFAVYAMGWYRQAPGKERELVAAIDSSDGSTSYADSVKGRFTISRDNAKNTVYLQMNSLKPEDTAVYYCAGDQYWWFYEYEYWGQGTQVTVSS”, which “polyreactivity (PSR sort gate)” value is on record?
**A.** Its value is “low polyreactivity”.

**Q.** For “QVQLVESGGGLVQAGGSLRLSCAASGFTFAVYAMGWYRQAPGKERELVAAINRGGGSTYYADSVKGRFTISRDNAKNTVYLQMNSLKPEDTAVYYCNKRYRVWFDYWGQGTQVTLSS”, which “polyreactivity (PSR sort gate)” value is on record?
**A.** The value was “high polyreactivity”.

**Q.** With “QVQLVESGGGLVQAGGSLRLSCAASGFTFAVYVMGWYRQAPGKERELVATISFSVGSTYYADSVKGRFTISRDNAKNTVYLQMNSLKPEDTAVYYCNADPPPEYYPDKDNYWGQGTQVTVSS” as the sequence, how does the “polyreactivity (PSR sort gate)” value read?
**A.** The value was “low polyreactivity”.

**Q.** For “QVQLVESGGGLVQAGGSLRLSCAASGFTFAWYAMGWYRQAPGKERELVAAITSSGGSTYYADSVKGRFTISRDNAKNTVYLQMNSLKPEDTAVYYCAARPWIWARAGYYWGQGTQVTVSS”, which “polyreactivity (PSR sort gate)” value is on record?
**A.** Its value is “high polyreactivity”.

**Q.** With “QVQLVESGGGLVQAGGSLRLSCAASGFTFAYYAMGWYRPAPGKERELVAAITSGGRTNYADSVKGRFTISRDNAKNTVYLQMNSMKPEDTAVYYFAKGYRRVYGPLYYWGQGTQVTVSS” as the sequence, how does the “polyreactivity (PSR sort gate)” value read?
**A.** Its value is “low polyreactivity”.

**Q.** With “QVQLVESGGGLVQAGGSLRLSCAASGFTFAYYAMGWYRQAAGKERELVAAITVSGASTYYADSVKGRFTISRDNAKNTDYLQMNRLKPEETAVYYCARYYAIVSGYYDDGYWGQGTQVTVSS” as the sequence, how does the “polyreactivity (PSR sort gate)” value read?
**A.** Its value is “high polyreactivity”.

**Q.** With “QVQLVESGGGLVQAGGSLRLSCAASGFTFAYYAMGWYRQAPGKERELVAAISSRGGSTYADSVKGRFTISRDNAKNTVYLQMNSLKPEDTAVYYCNAVVPRSRYFSWTYDYWGQGTQVTVSS” as the sequence, how does the “polyreactivity (PSR sort gate)” value read?
**A.** Its value is “high polyreactivity”.

**Q.** Which “polyreactivity (PSR sort gate)” value does the source give for “QVQLVESGGGLVQAGGSLRLSCAASGFTFAYYAMGWYRQAPGKERELVAAISYSGGSTYYADSVKGRFTISRDNAKNTVYLQMNSLKPEDTAVYYCAAEAGRRYNWGYDYWGQGTQVTVSS” here?
**A.** The value was “high polyreactivity”.

**Q.** Which “polyreactivity (PSR sort gate)” value does the source give for “QVQLVESGGGLVQAGGSLRLSCAASGFTFAYYAMGWYRQAPGKERELVAAITRGGGRTFYADSVKGRFTISRDNAKNTVYLQMNSLKPEDTAVYYCAREVYRHYAPVGYDYWGQGTQVTVSS” here?
**A.** The value was “high polyreactivity”.

**Q.** For “QVQLVESGGGLVQAGGSLRLSCAASGFTFAYYTMGWYRQAPGKERELVAAINWSGGSTYYADSVKGRFTISRDNAKNTVYLQMNSLKPEDTAVYYSAPTCPYYNSRQGHQYDYWGQGTQVTVSS”, which “polyreactivity (PSR sort gate)” value is on record?
**A.** Its value is “high polyreactivity”.

Reference: the nanobody polyreactivity screen of Harvey et al. (2022)
